Numbering of substitutions follows the chain as printed. Blank lines part the entries; values can stand above or below the binder they belong to.
Legend:
mouse MuSK [1] = molecular target: T1, mouse MuSK (mouse, UniProt Q61006 22-494, limits assumed); assay: Biacore T200, off rate at pH 5.5 against pH 7.4
T1 construct: Coated on ELISA plates or on the Biacore chip; also called full length mouse MuSK; mouse MuSK (in house produced in HEK293 cells)
T1 sequence (looked up): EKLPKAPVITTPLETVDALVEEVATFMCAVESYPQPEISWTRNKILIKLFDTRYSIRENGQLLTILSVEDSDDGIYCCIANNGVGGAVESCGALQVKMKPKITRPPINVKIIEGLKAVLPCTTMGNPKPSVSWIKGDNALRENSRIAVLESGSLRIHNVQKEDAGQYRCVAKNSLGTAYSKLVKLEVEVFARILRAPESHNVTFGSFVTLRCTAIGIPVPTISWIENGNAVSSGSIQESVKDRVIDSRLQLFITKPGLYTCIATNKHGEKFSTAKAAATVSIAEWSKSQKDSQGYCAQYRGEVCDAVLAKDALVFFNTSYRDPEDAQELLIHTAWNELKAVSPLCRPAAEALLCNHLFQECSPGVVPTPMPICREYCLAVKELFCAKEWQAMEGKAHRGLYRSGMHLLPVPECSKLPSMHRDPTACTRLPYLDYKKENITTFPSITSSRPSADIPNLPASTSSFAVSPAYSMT
Protocol: (§1) In order to study pH dependent binding of the antibodies described herein to MuSK, a Biacore T200 was used. Briefly, a CMS chip was coated with human and mouse MuSK (200RU) and 22.2 nM of Fab was applied and kinetic parameters calculated. Association was done at pH7.4, dissociation was done at pH 7.4 and also at pH 5.5. The following Fabs were tested, X2, X2m4, X3, X9, X17, 3B2 and 3B2g2m1 (Table 10 and FIG. 23). […] Binding affinity at pH 5.5 is very low, resulting in a rapid dissociation at endosomal pH allowing 3B2g2m1 to recycle.

human MuSK [2] = molecular target: T2, human MuSK (human, UniProt O15146 24-495); assay: Biacore T200, off rate at pH 5.5 against pH 7.4
T2 construct: Recombinant protein coated on ELISA plates (R&D Systems cat. 10189-MK) or on the Biacore chip; also called human muscle-specific tyrosine protein kinase; full length human MuSK
T2 sequence: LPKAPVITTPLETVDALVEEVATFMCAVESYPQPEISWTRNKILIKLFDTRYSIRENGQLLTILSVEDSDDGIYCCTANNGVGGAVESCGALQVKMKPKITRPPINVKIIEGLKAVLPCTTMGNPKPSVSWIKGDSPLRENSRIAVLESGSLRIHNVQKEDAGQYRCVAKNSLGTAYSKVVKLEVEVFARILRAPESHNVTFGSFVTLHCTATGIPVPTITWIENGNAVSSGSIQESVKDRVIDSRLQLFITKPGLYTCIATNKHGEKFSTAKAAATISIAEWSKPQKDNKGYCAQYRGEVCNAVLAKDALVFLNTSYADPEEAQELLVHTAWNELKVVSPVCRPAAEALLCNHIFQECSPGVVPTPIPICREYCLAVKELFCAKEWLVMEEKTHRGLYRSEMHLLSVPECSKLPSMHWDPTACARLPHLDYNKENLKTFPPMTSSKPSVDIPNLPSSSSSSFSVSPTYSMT
Protocol: as §1

mouse MuSK [3] = molecular target: T1, mouse MuSK; assay: Biacore T200, MuSK on chip (200RU), 22.2 nM Fab, dissociation pH 5.5
Protocol: as §1

human MuSK [4] = molecular target: T2, human MuSK; assay: as above
Protocol: as §1

[5] = molecular target: T3, hECD: full-length extracellular region of human MuSK (E22 to T495) with C-terminal Avi- and His6-tags (human, UniProt O15146 22-495, biotinylated in vitro using the BirA enzyme); assay: bead-binding assay, Fab format: biotinylated antigen on streptavidin beads, flow cytometry, 1:1 fit; average ± s.d., n=3
T3 construct: also called human ECD; not shown: Avi- and His6-tags
T3 sequence: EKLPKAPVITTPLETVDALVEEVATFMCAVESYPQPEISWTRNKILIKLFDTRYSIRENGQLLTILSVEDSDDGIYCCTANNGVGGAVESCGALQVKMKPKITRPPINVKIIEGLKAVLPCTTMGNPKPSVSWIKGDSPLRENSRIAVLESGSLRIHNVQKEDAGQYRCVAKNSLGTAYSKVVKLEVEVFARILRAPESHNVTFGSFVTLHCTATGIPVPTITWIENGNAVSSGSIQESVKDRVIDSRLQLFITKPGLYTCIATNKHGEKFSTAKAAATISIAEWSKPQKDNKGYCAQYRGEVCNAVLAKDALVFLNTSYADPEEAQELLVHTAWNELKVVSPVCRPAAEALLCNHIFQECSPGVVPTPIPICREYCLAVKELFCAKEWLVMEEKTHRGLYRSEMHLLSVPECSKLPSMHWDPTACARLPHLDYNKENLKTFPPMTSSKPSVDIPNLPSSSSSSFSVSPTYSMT

[6] = molecular target: T4, hFz: Fz domain and C-terminal flanking sequence of human MuSK (K314-T495) with C-terminal Avi- and His6-tags (human, UniProt O15146 314-495, biotinylated in vitro using the BirA enzyme); assay: as above
T4 construct: also called human Fz; not shown: Avi- and His6-tags
T4 sequence: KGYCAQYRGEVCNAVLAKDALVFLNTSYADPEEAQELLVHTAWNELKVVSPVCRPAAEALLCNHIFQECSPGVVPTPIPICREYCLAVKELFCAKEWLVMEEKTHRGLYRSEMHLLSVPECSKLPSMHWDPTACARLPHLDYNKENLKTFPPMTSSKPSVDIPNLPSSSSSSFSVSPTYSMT

[7] = molecular target: T5, mFz: Fz domain and C-terminal flanking sequence of mouse MuSK (D307 to T494) with C-terminal Avi- and … (mouse, UniProt Q61006 307-494, limits assumed, biotinylated in vitro using the BirA enzyme); assay: as above
T5 construct: also called mouse Fz; not shown: Avi- and His6-tags
T5 sequence (looked up): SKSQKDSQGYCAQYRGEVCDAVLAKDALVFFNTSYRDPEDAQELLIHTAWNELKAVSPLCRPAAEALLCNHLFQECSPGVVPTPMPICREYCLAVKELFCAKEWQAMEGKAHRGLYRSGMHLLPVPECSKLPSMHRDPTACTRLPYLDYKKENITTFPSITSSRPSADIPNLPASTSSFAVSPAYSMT

[8] = molecular target: T6, mECD: full-length extracellular region of mouse MuSK (E22 to T494) with C-terminal Avi- and His6-tags (mouse, UniProt Q61006 22-494, biotinylated in vitro using the BirA enzyme); assay: as above
T6 construct: range 22-494; also called mouse ECD; not shown: Avi- and His6-tags
T6 sequence (looked up): T1 sequence (looked up)

mouse MuSK [9] = molecular target: T1, mouse MuSK; assay: Biacore T200, MuSK on chip (200RU), 22.2 nM Fab, dissociation pH 7.4
Protocol: as §1

human MuSK [10] = molecular target: T2, human MuSK; assay: as above
Protocol: as §1

[11] = molecular target: T4, hFz: Fz domain and C-terminal flanking …; assay: bead-binding titration, Fab format: antigen immobilized on streptavidin beads, MFI by flow cytometry, curve is the 1:1 fit
[12] = molecular target: T5, mFz: Fz domain and C-terminal flanking …; assay: as above
[13] = molecular target: T3, hECD: full-length extracellular region …; assay: bead-binding assay, IgG format: biotinylated antigen on streptavidin beads, flow cytometry, 1:1 fit; average ± s.d., n=3
[14] = molecular target: T4, hFz: Fz domain and C-terminal flanking …; assay: as above
[15] = molecular target: T5, mFz: Fz domain and C-terminal flanking …; assay: as above
[16] = molecular target: T6, mECD: full-length extracellular region …; assay: as above
[17] = molecular target: T5, mFz: Fz domain and C-terminal flanking …; assay: bead-binding titration, IgG format: antigen immobilized on streptavidin beads, MFI by flow cytometry, curve is the 1:1 fit
[18] = molecular target: T6, mECD: full-length extracellular region …; assay: as above

Ratio pH 5.5/7.4 of off rate (mouse MuSK [1]): 1.7 | Ratio pH 5.5/7.4 of off rate (human MuSK [2]): 7.7 | koff (mouse MuSK [3]): 0.002 s⁻¹ | koff (human MuSK [4]): 0.00678 s⁻¹ | Kd [5]: 520 pM | Kd [6]: 380 pM | Kd [7]: 470 pM | Kd [8]: 630 pM | koff (mouse MuSK [9]): 0.0012 s⁻¹ | koff (human MuSK [10]): 0.00088 s⁻¹ | EC50 (read off the curve) [11]: ~400 pM | EC50 (read off the curve) [12]: ~300 pM
B1: X17 Fab (Fab, V domains shown)
VH: EVQLVESGGGLVQPGGSLRLSCAASGFTISYSSIHWVRQAPGKGLEWVASIYSSSGSTYYADSVKGRFTISADTSKNTAYLQMNSLRAEDTAVYYCARGDHGYYVFGYLGMDYWGQGTLVTVSS
VL: DIQMTQSPSSLSASVGDRVTITCRASQSVSSAVAWYQQKPGKAPKLLIYSASSLYSGVPSRFSGSRSGTDFTLTISSLQPEDFATYYCQQSYKPGALITFGQGTKVEIK
notes: Fab format

Kd [13]: 113 pM | Kd [14]: 79 pM | Kd [15]: 96 pM | Kd [16]: 118 pM | EC50 (read off the curve) [17]: ~100 pM | EC50 (read off the curve) [18]: ~100 pM
B2: mIgG2a-X3 (antibody, V domains shown)
VH: EVQLVESGGGLVQPGGSLRLSCAASGFTISSSSIHWVRQAPGKGLEWVASISSSSGYTYYADSVKGRFTISADTSKNTAYLQMNSLRAEDTAVYYCARSWYEMWMSGYFGFDYWGQGTLVTVSS
VL: DIQMTQSPSSLSASVGDRVTITCRASQSVSSAVAWYQQKPGKAPKLLIYSASSLYSGVPSRFSGSRSGTDFTLTISSLQPEDFATYYCQQSSSSLITFGQGTKVEIK
notes: mouse IgG2a format; also called X3 in mouse IgG2a format

Kd [13]: 478 pM | Kd [14]: 421 pM | Kd [15]: 265 pM | Kd [16]: 307 pM | EC50 (read off the curve) [17]: ~300 pM | EC50 (read off the curve) [18]: ~400 pM
B3: hIgG1-X2 (antibody, V domains shown)
VH: EVQLVESGGGLVQPGGSLRLSCAASGFTVSSSSIHWVRQAPGKGLEWVASISSSYGSTSYADSVKGRFTISADTSKNTAYLQMNSLRAEDTAVYYCARSEGDRYVSGYMGMDYWGQGTLVTVSS
VL: B2 VL with S92G, S93V, S94W
notes: human IgG1 Fc containing LALA mutations; also called hIgG-X2; X2 in the human IgG1 format

Kd [13]: 74 pM | Kd [14]: 57 pM | Kd [15]: 70 pM | Kd [16]: 79 pM | EC50 (read off the curve) [17]: ~70 pM | EC50 (read off the curve) [18]: ~80 pM
B4: hIgG1-X3 (antibody, V domains shown)
VH: B2 VH
VL: B2 VL
notes: human IgG1 Fc containing LALA mutations; also called X3 in human IgG1 format

— patent publication US20230151091A1 (NEW YORK UNIVERSITY, published 2023)
